According to patent publication US20110243967A1:
pKd: −log10 of the molar value. Blank lines part the entries; values can stand above or below the substance they belong to.

What was measured:
[1] = target: SL9-loaded H-2 L^d (mouse) (UniProt P01897); assay: flow cytometry, direct saturation of FITC-30.5.7 Fab on peptide-loaded RMA-S L^d cells
[2] = target: QL9-loaded H-2 L^d (mouse) (UniProt P01897); assay: as above
[3] = target: p2Ca-loaded H-2 L^d (mouse) (UniProt P01897); assay: as above
[4] = target: pMCMV-loaded H-2 L^d (mouse) (UniProt P01897)
pMCMV-loaded H-2 L^d (mouse), sequence (P01897 25-309): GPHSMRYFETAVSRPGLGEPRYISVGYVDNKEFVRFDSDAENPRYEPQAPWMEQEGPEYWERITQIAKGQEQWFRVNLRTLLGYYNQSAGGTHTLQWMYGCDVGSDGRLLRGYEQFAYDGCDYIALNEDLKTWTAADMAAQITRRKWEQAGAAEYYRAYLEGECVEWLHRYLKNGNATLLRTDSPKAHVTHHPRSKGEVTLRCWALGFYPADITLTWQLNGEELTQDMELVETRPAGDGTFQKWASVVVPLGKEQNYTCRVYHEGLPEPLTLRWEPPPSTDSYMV

[5] = target: unloaded H-2 L^d on RMA-S L^d cells (mouse) (UniProt P01897); assay: flow cytometry on RMA-S L^d cells, no peptide, bar '37 degrees'; mAb 30.5.7 then PE-labelled goat anti-mouse IgG
unloaded H-2 L^d on RMA-S L^d cells (mouse), sequence (P01897 25-309): as above

[6] = target: serologically reactive H-2 L^d on RENCA cells (murine) (UniProt P01897); assay: flow cytometry on γ-IFN stimulated RENCA cells (5-50 units/ml)
[7] = target: unloaded H-2 L^d on RMA-S L^d cells (mouse) (UniProt P01897); assay: flow cytometry on RMA-S L^d cells, no peptide, bar '22 degrees' (the legend says 27°C); mAb 30.5.7 then PE-labelled goat anti-mouse IgG
[8] = target: QL9-loaded H-2 L^d (mouse) (UniProt P01897); assay: flow cytometry on L^d cells loaded with graded peptide concentrations
[9] = target: p2Ca-loaded H-2 L^d (mouse) (UniProt P01897); assay: as above
[10] = target: serologically reactive H-2 L^d on RENCA cells (murine) (UniProt P01897); assay: flow cytometry on unstimulated RENCA cells
[11] = target: pMCMV-loaded H-2 L^d (mouse) (UniProt P01897); remark: listed apart in the source
[12] = target: SL9-loaded H-2 L^d (mouse) (UniProt P01897); assay: flow cytometry on peptide-loaded RMA-S L^d cells; mAb 30.5.7 then PE-labelled goat anti-mouse IgG
[13] = target: QL9-loaded H-2 L^d (mouse) (UniProt P01897); assay: as above
tum (mouse) = assay: as above
[14] = target: p2Ca-loaded H-2 L^d (mouse) (UniProt P01897); assay: as above
[15] = target: SIY-loaded H-2 K^bm3 (mouse); assay: flow cytometry on peptide-loaded T2 K^bm3 cells
[16] = target: p2Ca-loaded H-2 L^d (mouse) (UniProt P01897); assay: flow cytometry, serial dilutions on p2Ca-loaded RMA-S L^d cells, detection with H57-FITC
[17] = target: QL9-loaded H-2 L^d (mouse) (UniProt P01897); assay: flow cytometry on RMA-S L^d cells loaded with 100 µM peptide; two-fold dilutions of soluble monovalent 2C TCR, detected with H57-FITC
[18] = target: QL9-loaded H-2 L^d (mouse) (UniProt P01897); assay: flow cytometry, serial dilutions on QL9-loaded RMA-S L^d cells, detection with H57-FITC
[19] = target: p2Ca-loaded H-2 L^d (mouse) (UniProt P01897); assay: competition with constant FITC-30.5.7 Fab on peptide-loaded RMA-S L^d cells, flow cytometry

SL9-loaded H-2 L^d (mouse), sequence (P01897 25-309): as above
soluble divalent 2C TCR/Ig, sequence (A2KF29 whole entry, looked up, tested part not stated): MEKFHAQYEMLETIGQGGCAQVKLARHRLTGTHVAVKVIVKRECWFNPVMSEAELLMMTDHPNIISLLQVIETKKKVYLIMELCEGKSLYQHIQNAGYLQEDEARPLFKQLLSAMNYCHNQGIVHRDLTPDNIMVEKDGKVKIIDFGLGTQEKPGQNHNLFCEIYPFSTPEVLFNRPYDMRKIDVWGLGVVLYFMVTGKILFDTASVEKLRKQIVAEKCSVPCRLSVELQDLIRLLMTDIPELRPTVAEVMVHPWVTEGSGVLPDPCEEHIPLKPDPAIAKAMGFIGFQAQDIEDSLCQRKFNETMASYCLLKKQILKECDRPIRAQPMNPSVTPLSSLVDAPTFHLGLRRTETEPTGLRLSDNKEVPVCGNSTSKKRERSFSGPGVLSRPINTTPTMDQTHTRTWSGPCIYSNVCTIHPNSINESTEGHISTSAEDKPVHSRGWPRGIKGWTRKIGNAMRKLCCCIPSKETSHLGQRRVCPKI

Substance: FITC-labeled 30.5.7 Fab
pKd [1]: 8.19 to 8.32
pKd [2]: 7.91
pKd [3]: 8.24
pKd [4]: 8.32

Substance: mAb 30.5.7 (antibody)
Mean Channel Fluorescence [5]: 60
MCF [6]: 2670 to 3040
Mean Channel Fluorescence [7]: 347
MCF [8]: 3000
MCF [9]: 3000
MCF [10]: 500
Mean Channel Fluorescence [11]: 648
Mean Channel Fluorescence (gp 70 (mouse)): 677
Mean Channel Fluorescence [12]: 556
Mean Channel Fluorescence [13]: 688
Mean Channel Fluorescence (tum (mouse)): 578
Mean Channel Fluorescence [14]: 693

MCF [15]: 36
Substance: soluble divalent 2C TCR/Ig (from UniProt A2KF29)

concentration required to detect binding [16]: > 3000 nM
EC50 (read off the curve) [17]: 300 nM
concentration required to detect binding [18]: > 100 nM
Kapp [19]: > 2000 nM
pKd [19]: < 5.70
Substance: soluble monovalent 2C TCR
